Read-outs that look alike come from different tables or passages of the source.
B1: PR001354 (antibody, human IgG1, kappa, V domains shown)
VH: QVQLVQSGGGVVQPGRSLRLSCAASGFTFSSYGMHWVRQAPGKGLEWVAIMWYDGSDKDYADSVKGRFTISRDTSKNTLYLQMNSLRAEDTAVYYCAREQARSFDLWGRGTLVTVSS
VL: DIVMTQSPSSLSASVGDRVTITCRASQTINNWLAWYQQKPGKAPKLLIYKASSLESGVPSRFSGSGSGTEFTLTISSLQPDDFATYYCQQYNSYSPMYTFGQGTKVEIKR
notes: fully human IgG1, kappa; also called anti-ROR1 1015M2-C9 hIgG1; PR001354(WT)
B2: PR001362 (antibody, V domains shown)
VH: QVQLVESGGGLVQPGGSLRLSCAASGFTFSTYGMHWVRQAPGKGLEWVAVIWYDGSDEDYADSVKGRFTISRDNSKNTLYLQMNSLRAEDTAVYYCARDQARSFDLWGRGTLVTVSS
VL: DIVMTQSPSTLSASVGDRVTITCRASQSINSWLAWYQQKPGKAPKLLIYKASSLESGVPSRFSGSGSGTEFTLTISSLQPDDFATYYCQQYKSYSPMYTFGQGTKVEIKR
notes: fully human IgG1, kappa
B3: Positive control antibody (PR000374) (antibody, human IgG1, kappa, V domains shown)
VH: EVQLVESGGGLVQPGRSLRLSCTASGSDINDYPITWVRQAPGQGLEWIGFINSGGSTWYASWVKGRFTISRDDSKSIAYLQMNSLKTEDTAVYYCARGYSTYYRDFNIWGQGTLVTVSS
VL: DIQMTQSPSSLSASVGDRVTINCQASQSIDSNLAWFQQKPGQPPKLLIYRASNLASGVPDRFSGSGSGTDFTLTISSLEAEDVATYYCLGGVGAVSYRTSFGGGTKVEIKR

What was measured:
[1] = target: T1, human ROR1 (hROR1) on cells (human, UniProt Q01973 30-937); assay: FACS, A549 cells
T1 construct: whole, on cells; the cell line is named under assay; also called HEK293T-hROR1; 293T-hROR1
T1 sequence (Q01973 30-937): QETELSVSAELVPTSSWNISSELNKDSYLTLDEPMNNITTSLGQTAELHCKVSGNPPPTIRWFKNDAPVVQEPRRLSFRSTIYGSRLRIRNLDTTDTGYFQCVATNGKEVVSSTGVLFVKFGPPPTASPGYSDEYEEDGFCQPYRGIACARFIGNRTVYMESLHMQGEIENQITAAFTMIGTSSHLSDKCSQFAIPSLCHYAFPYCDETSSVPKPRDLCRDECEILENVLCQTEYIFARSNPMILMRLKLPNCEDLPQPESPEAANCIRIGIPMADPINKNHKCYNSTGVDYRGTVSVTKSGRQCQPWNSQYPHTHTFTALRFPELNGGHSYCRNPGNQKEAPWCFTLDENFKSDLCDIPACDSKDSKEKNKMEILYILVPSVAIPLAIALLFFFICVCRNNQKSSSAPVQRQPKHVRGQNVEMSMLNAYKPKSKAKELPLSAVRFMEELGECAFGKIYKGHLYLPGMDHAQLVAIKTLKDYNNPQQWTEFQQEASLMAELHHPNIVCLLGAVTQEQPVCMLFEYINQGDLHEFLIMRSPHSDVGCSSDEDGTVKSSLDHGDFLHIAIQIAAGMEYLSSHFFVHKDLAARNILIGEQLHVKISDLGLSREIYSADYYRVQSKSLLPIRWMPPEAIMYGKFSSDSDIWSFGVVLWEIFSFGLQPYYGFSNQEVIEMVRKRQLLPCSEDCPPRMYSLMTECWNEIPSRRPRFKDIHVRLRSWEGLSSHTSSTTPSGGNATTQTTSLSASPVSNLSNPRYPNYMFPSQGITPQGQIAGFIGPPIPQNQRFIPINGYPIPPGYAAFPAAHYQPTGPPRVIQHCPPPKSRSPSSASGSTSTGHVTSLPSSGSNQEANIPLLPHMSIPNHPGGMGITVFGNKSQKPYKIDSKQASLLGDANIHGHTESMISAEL
Experimental: (§1) The binding properties were characterized by FACS. The recombinant antibodies obtained above were serially diluted to 9 different concentrations and incubated for 1 h, and then determined for the binding ability with HEK293T-hROR1, CHO-K1-cynoROR1 and A549 cell lines (endogenously expressing ROR1), respectively. The secondary antibody was then incubated for 1 h. The results are shown in FIG. 4-6 and Table 7-2 below.

[2] = target: T1, human ROR1 (hROR1) on cells; assay: FACS, Panc-1 cells
[3] = target: T1, human ROR1 (hROR1) on cells; assay: FACS, HEK293T-hROR1 cells
Experimental: as §1

[4] = target: T1, human ROR1 (hROR1) on cells; assay: cell-based or functional assay
[5] = target: T1, human ROR1 (hROR1) on cells; assay: cell-based or functional assay; remark: listed apart in the source
[6] = target: T1, human ROR1 (hROR1) on cells; assay: FACS, HEK293T-hROR1 cells; remark: listed apart in the source
[7] = target: T2, cynomolgus ROR1 (cynoROR1) on CHO-K1 cells (cynomolgus, UniProt A0A2K5WTX7 30-937); assay: FACS, CHO-K1-cynoROR1 cells
T2 construct: whole, on cells; also called CHO-K1-cynoROR1; CHO-K1-cyROR1
Experimental: as §1

[8] = target: T3, ROR1 (antigen of the KD determination and of the Octet dissociation measurement) (UniProt Q01973 30-403, limits assumed); assay: Octet, antigen form not stated
T3 sequence (Q01973 30-403 limits assumed): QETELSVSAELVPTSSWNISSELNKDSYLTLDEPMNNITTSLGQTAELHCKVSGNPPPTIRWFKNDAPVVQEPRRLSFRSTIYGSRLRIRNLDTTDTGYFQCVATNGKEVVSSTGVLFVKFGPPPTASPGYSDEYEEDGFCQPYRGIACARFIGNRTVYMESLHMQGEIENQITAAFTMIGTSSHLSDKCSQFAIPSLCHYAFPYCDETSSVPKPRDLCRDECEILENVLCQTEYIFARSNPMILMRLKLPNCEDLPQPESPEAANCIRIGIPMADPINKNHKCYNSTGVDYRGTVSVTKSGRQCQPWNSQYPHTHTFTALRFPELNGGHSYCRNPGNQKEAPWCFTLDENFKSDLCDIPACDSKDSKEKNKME

hROR2ECD-his [9] = target: T4, hROR2ECD-his (human, UniProt Q01974 34-403); assay: ELISA, plate coated with hROR2 ECD-his
T4 construct: extracellular domain; bought, Acrobiosystems R02-H52E5; also called huROR2-his
T4 sequence (Q01974 34-403): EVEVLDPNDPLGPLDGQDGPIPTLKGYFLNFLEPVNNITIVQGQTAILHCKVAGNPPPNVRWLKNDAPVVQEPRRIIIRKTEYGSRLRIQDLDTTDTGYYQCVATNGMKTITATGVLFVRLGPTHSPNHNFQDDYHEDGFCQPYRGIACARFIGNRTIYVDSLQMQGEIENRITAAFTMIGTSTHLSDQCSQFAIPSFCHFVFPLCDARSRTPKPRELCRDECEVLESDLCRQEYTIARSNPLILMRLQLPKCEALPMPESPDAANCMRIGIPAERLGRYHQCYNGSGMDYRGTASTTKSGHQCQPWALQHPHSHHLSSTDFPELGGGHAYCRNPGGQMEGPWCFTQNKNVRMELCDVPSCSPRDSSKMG
Procedure, shortened: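 Plates were coated overnight at 4 °C with hROR2 ECD-his at 1 μg/mL and blocked with 5% milk. Recombinant antibodies were bound for 1 h at room temperature and detected with anti-Fc secondary and a 15-min TMB development. […]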

Human ROR1-ECD-his = target: T5, Human ROR1-ECD-his (human, UniProt Q01973 30-406); assay: ELISA, plate coated with hROR1 ECD-his
T5 construct: extracellular domain; bought, Acrobiosystems RO1-H522y; also called hROR1-ECD-his; hROR1 ECD-his
T5 sequence (Q01973 30-406): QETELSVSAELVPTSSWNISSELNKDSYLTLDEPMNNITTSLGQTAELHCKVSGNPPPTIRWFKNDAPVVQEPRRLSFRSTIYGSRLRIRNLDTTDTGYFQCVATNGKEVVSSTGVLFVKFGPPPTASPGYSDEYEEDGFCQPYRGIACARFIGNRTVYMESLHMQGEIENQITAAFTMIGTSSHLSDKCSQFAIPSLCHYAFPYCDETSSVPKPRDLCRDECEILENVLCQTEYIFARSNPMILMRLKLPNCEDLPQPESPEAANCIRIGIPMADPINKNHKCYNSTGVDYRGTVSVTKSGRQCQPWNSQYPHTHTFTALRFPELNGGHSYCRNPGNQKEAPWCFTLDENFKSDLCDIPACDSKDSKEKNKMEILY

hROR2ECD-his [10] = target: T4, hROR2ECD-his; assay: ELISA, plate coated with hROR2 ECD-his; remark: listed apart in the source
[11] = target: T3, ROR1 (antigen of the KD determination …); assay: method not stated (conventional procedures)
[12] = target: T1, human ROR1 (hROR1) on cells; assay: FACS, HEK293T-hROR1 cells; cytometer saturated
Experimental: as §1

[13] = target: T2, cynomolgus ROR1 (cynoROR1) on CHO-K1 …; assay: flow cytometry (FACS) on CHO-K1-cynoROR1 cells, antibody 0.01-100 nM, median fluorescence intensity
Experimental: as §1

[14] = target: T1, human ROR1 (hROR1) on cells; assay: flow cytometry (FACS) on HEK293T-hROR1 cells, antibody 0.01-100 nM, median fluorescence intensity
Experimental: as §1

[15] = target: T2, cynomolgus ROR1 (cynoROR1) on CHO-K1 …; assay: flow cytometry (FACS) on CHO-K1-cynoROR1 cells, antibody 0.01-100 nM, median fluorescence intensity; remark: listed apart in the source
Experimental: as §1

[16] = target: T1, human ROR1 (hROR1) on cells; assay: flow cytometry (FACS) on A549 cells (endogenous ROR1), antibody 0.01-100 nM, median fluorescence intensity
Experimental: as §1

Row | Binder | MAX(MFI) [1] [MFI] | fold lower EC50 than reference PR000374 [3] [fold] | endocytosis EC50(nM) (a-hFc-MMAF killing, CTG luminescence) [4] | ADCC Cytotoxicity (%), Donor 1, 1 nM [5] [%] | ADCC Cytotoxicity (%), Donor 1, 10 nM [5] [%] | ADCC Cytotoxicity (%), Donor 2, 1 nM [5] [%] | ADCC Cytotoxicity (%), Donor 2, 10 nM [5] [%] | MAX(MFI) [7] [MFI] | binding result (hROR2ECD-his [9]) | ELISA signal (called MFI) (Human ROR1-ECD-his) | ELISA signal (called MFI) (hROR2ECD-his [10]) | Kd [11] [nM] | koff [11] [s⁻¹] | kon [11] [M⁻¹ s⁻¹] | MAX(MFI) [12] [MFI] | EC50 (read off the curve) [13] [nM] | other results
1 | B1 | 4300 | 10 | 0.143 | 33.5 | 34.7 | 14.4 | 15.9 | 27000 | no binding | 2.44 | 0.027 | 1.13 | 0.000383 | 339000 | 262000 | – | MFI [2]: 6700 MFI; MFI [6]: 42800 MFI; Response [8]: 0.609; koff [8]: 0.000117 s⁻¹
2 | B2 | 3750 | 10 | – | 13.9 | 26.9 | 13.2 | 19.2 | 17700 | no binding | 2.22 | 0.032 | 45.4 | 0.0136 | 300000 | 262000 | ~2 | –
3 | B3 | 3850 | – | 0.243 | 14.4 | 25.4 | 11.4 | 18.2 | 31900 | – | 2.48 | 0.022 | 0.397 | 0.000173 | 437000 | 262000 | ~3 | EC50 (read off the curve) [14]: ~9 nM; EC50 (read off the curve) [15]: ~5 nM; EC50 (read off the curve) [16]: ~3 nM
